We go through 14 molecules from patent publication EP4671280A1 (Nanjing Leads Biolabs Co., Ltd., dated 2025).

In assay [1] the target is T1, cynomolgus monkey Nectin-4 expressed on CHO-K1 cells (cynomolgus monkey, UniProt Q96NY8 32-370 (human entry), limits assumed).
T1 construct: also called CHO-K1/cynoNectin4; cells expressing the cynomolgus monkey Nectin-4 protein
T1 chain: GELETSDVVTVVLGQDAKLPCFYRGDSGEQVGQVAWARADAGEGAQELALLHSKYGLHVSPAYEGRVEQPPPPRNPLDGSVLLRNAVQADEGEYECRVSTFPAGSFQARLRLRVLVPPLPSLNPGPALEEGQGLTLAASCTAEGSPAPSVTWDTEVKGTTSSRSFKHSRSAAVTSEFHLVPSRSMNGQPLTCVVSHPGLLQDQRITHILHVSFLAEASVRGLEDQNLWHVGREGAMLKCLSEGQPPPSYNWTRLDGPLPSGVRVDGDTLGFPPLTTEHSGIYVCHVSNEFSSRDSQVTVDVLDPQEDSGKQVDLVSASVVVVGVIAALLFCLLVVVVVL
The assay can be described thus: flow cytometry on CHO-K1/cynoNectin4 cells. (In flow cytometry, cells or beads pass a laser one at a time.)

The target of assay [2] is T2, human Nectin-4 expressed on HT-1376 tumor cells (human, UniProt Q96NY8 32-510).
T2 construct: whole, on cells; also called HT-1376 cells expressing human Nectin-4
T2 sequence (looked up): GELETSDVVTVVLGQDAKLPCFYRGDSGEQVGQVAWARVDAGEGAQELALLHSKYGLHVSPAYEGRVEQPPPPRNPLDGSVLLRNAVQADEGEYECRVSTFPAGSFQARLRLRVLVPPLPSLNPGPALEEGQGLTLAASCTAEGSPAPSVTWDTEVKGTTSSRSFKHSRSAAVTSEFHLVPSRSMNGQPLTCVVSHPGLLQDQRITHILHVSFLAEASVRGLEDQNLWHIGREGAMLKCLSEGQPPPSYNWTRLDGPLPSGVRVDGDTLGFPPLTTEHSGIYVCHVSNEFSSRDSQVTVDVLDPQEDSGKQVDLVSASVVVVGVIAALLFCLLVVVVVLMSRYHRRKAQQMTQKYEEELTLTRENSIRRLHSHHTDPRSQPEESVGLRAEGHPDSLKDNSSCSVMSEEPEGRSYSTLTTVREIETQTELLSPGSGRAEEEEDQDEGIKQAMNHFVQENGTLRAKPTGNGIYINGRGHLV
The assay can be described thus: flow cytometry on HT-1376 cells.

Assay [3] deals with human Nectin-3 protein (Sino Biological, Cat. No. 10852-H08H) (human, UniProt Q9NQS3 58-404). The assay can be described thus: ELISA, Nectin family protein immobilised on plate. (In general: ELISA stands for enzyme-linked immunosorbent assay.)
Assay [4] deals with T3, human Nectin-2 protein (Sino Biological, Cat. No. 10005-H08H) (human, UniProt Q92692 32-360).
T3 sequence (looked up): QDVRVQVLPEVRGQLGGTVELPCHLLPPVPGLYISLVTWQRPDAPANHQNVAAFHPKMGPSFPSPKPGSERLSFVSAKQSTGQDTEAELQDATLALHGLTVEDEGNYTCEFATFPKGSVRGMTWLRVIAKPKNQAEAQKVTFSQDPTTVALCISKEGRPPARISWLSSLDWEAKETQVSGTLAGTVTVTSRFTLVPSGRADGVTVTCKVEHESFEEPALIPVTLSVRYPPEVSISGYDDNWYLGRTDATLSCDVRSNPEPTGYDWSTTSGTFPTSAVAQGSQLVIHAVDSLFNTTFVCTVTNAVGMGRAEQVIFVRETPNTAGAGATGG
The assay can be described thus: ELISA, Nectin family protein immobilised on plate.

Sequence of human Nectin-3 protein (Sino Biological, Cat. No. 10852-H08H) (Q9NQS3 58-404 limits assumed): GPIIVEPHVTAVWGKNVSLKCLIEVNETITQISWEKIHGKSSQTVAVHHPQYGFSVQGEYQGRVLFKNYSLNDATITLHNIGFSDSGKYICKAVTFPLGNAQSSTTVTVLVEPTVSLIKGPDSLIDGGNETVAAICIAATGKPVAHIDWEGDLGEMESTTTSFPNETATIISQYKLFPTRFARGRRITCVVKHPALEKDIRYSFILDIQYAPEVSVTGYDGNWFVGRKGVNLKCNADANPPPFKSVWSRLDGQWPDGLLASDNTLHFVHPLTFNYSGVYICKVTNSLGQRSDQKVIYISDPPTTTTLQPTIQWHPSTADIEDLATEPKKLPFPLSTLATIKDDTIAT

B1: Antibody 23-H4F3 (murine chimeric anti-Nectin-4 antibody) (antibody, human IgG1, kappa, V domains shown)
VH: QVQLQQSGPELVKPGASVRISCKASGYTFTSYYIHWVKQRPGQGLEWIGWIYPGNVNTKYNEKFKGKATLTADKSSSTAYMQLISLTSEDSAVYFCARGVYYFDFWGQGTTLTVSS
VL: SIVMTQTPKFLLVSAGDRVTLTCKASQSVSNDVAWFQQKPGQSPKLLIYYALNRYTGVPDRFTGSGYGTDFTFTISTVQAEDLAVYFCQQDYSSPYTFGGGTKLEIKR
notes: Mouse variable regions on human IgG1 / human kappa constant regions, expressed in ExpiCHO-S cells; also called chimeric antibody 23-H4F3
The term EC50 denotes the concentration at which the effect is half-maximal. As to B1, the EC50 in assay [1] came to 0.411 nM; in assay [2] it was 0.064 nM. Moreover, the binding result in assay [3] and in assay [4] was “no binding” each time.

B2: Enfortumab (antibody, human IgG1, kappa, V domains shown)
VH: EVQLVESGGGLVQPGGSLRLSCAASGFTFSSYNMNWVRQAPGKGLEWVSYISSSSSTIYYADSVKGRFTISRDNAKNSLSLQMNSLRDEDTAVYYCARAYYYGMDVWGQGTTVTVSS
VL: DIQMTQSPSSVSASVGDRVTITCRASQGISGWLAWYQQKPGKAPKFLIYAASTLQSGVPSRFSGSGSGTDFTLTISSLQPEDFATYYCQQANSFPPTFGGGTKVEIKR
notes: used as control antibody (naked antibody, no drug); also called control antibody enfortumab
With B2, the binding result in assay [1] and in assay [2] was “binds” each time.

B3: Antibody 32-A12C7 (murine chimeric anti-Nectin-4 antibody) (antibody, human IgG1, kappa, V domains shown)
VH: QVQLQQPGAELVMPGASVKMSCKASGYTFTDYWMHWVKQRPGQGLEWIGAIDTSDSYTSYNQKFKGKATLTVDESSSTAYMQLSSLTSEDSAVYYCARWGSTMITWGYGMDNWGQGTSVTVSS
VL: DIQMTQTTSSLSASLGDRVTISCRASQDINNYLNWYQQKPDGTVKLLIYYTSRLHSGVPSRFSGSGSGTDYSLTISNLEQEDIATYFCQQGNTLPWTFGGGTKLEIKR
notes: Mouse variable regions on human IgG1 / human kappa constant regions
B3: the 50% effective concentration (EC50) in assay [1] worked out at 1.05 nM; in assay [2], 0.3 nM.

B4: huH4F3-2 (antibody, human IgG1, kappa, V domains shown)
VH: QVQLVQSGAEVKKPGASVKVSCKASGYTFTSYYIHWVRQAPGQRLEWMGWIYPGNVNTKYSQKFQGRVTLTRDKSASTAYMELSSLRSEDTAVYYCARGVYYFDFWGQGTLVTVSS
VL: AIQMTQSPSSLSASVGDRVTITCRASQSVSNDVGWYQQKPGKAPKLLIYYALNRYTGVPSRFSGSGSGTDFTLTISSLQPEDFATYYCQQDYSSPYTFGQGTKLEIKR
notes: Humanized 23-H4F3, human IgG1/kappa
With B4, the binding result in assay [1] and in assay [2] was “binds” each time.

B5: huH4F3-4 (antibody, human IgG1, kappa, V domains shown)
VH: QVQLVQSGAEVKKPGASVKVSCKASGYTFTSYYIHWVRQAPGQRLEWMGWIYPGNVNTKYSQKFQGRVTLTRDKSASTAYMELSSLRSEDTAVYYCARGVYYFDFWGQGTLVTVSS
VL: DIVMTQSPDSLAVSLGERATINCKASQSVSNDVAWYQQKPGQPPKLLIYYALNRESGVPDRFSGSGSGTDFTLTISSLQAEDVAVYYCQQDYSSPYTFGQGTKLEIKR
notes: as for B4
As to B5, the binding result in assay [1] and in assay [2] was “binds” in each case.

B6: huH4F3-9 (antibody, human IgG1, kappa, V domains shown)
VH: QVQLVQSGAEVKKPGASVKVSCKASGYTFTSYYIHWVRQAPGQRLEWMGWIYPGNVNTKYSQKFQGRVTLTRDKSASTAYMELSSLRSEDTAVYFCARGVYYFDFWGQGTLVTVSS
VL: DIVMTQSPDSLAVSLGERATINCKASQSVSNDVAWYQQKPGQPPKLLIYYALNRESGVPDRFSGSGSGTDFTLTISSLQAEDVAVYYCQQDYSSPYTFGQGTKLEIKR
notes: as for B4
Regarding B6, the binding result in assay [1] and in assay [2] was “binds” throughout.

B7: huH4F3-1 (antibody, human IgG1, kappa, V domains shown)
VH: QVQLVQSGAEVKKPGASVKVSCKASGYTFTSYYIHWVRQAPGQRLEWMGWIYPGNVNTKYSQKFQGRVTLTRDKSASTAYMELSSLRSEDTAVYYCARGVYYFDFWGQGTLVTVSS
VL: AIQMTQSPSSLSASVGDRVTITCRASQSVSNDVGWYQQKPGKAPKLLIYYALNLQSGVPSRFSGSGSGTDFTLTISSLQPEDFATYYCQQDYSSPYTFGQGTKLEIKR
notes: as for B4
B7: the binding result in assay [1] and in assay [2] was “binds” each time.

B8: huH4F3-5 (antibody, human IgG1, kappa, V domains shown)
VH: QVQLVQSGAEVKKPGASVKVSCKASGYTFTSYYIHWVRQAPGQRLEWMGWIYPGNVNTKYSQKFQGRVTLTRDKSASTAYMELSSLRSEDTAVYYCARGVYYFDFWGQGTLVTVSS
VL: DIVMTQSPDSLAVSLGERATINCKSSQSVSNDVAWYQQKPGQPPKLLIYYALNRESGVPDRFSGSGSGTDFTLTISSLQAEDVAVYYCQQDYSSPYTFGQGTKLEIKR
notes: as for B4
Regarding B8, the binding result in assay [1] and in assay [2] was “binds” throughout.

B9: huH4F3-6 (antibody, human IgG1, kappa, V domains shown)
VH: QVQLVQSGAEVKKPGASVKVSCKASGYTFTSYYIHWVRQAPGQRLEWMGWIYPGNVNTKYSQKFQGRVTLTRDKSASTAYMELSSLRSEDTAVYFCARGVYYFDFWGQGTLVTVSS
VL: AIQMTQSPSSLSASVGDRVTITCRASQSVSNDVGWYQQKPGKAPKLLIYYALNLQSGVPSRFSGSGSGTDFTLTISSLQPEDFATYYCQQDYSSPYTFGQGTKLEIKR
notes: as for B4
For B9, the binding result in assay [1] and in assay [2] was “binds” in each case.

B10: huH4F3-3 (antibody, human IgG1, kappa, V domains shown)
VH: QVQLVQSGAEVKKPGASVKVSCKASGYTFTSYYIHWVRQAPGQRLEWMGWIYPGNVNTKYSQKFQGRVTLTRDKSASTAYMELSSLRSEDTAVYYCARGVYYFDFWGQGTLVTVSS
VL: AIQMTQSPSSLSASVGDRVTITCRASQSVSNDVGWFQQKPGKAPKLLIYYALNRYTGVPSRFSGSGSGTDFTFTISSLQPEDFATYYCQQDYSSPYTFGQGTKLEIKR
notes: as for B4
For the molecule B10, the binding result in assay [1] and in assay [2] was “binds” each time.

B11: huH4F3-7 (antibody, human IgG1, kappa, V domains shown)
VH: QVQLVQSGAEVKKPGASVKVSCKASGYTFTSYYIHWVRQAPGQRLEWMGWIYPGNVNTKYSQKFQGRVTLTRDKSASTAYMELSSLRSEDTAVYFCARGVYYFDFWGQGTLVTVSS
VL: AIQMTQSPSSLSASVGDRVTITCRASQSVSNDVGWYQQKPGKAPKLLIYYALNRYTGVPSRFSGSGSGTDFTLTISSLQPEDFATYYCQQDYSSPYTFGQGTKLEIKR
notes: as for B4
As to B11, the binding result in assay [1] and in assay [2] was “binds” each time.

B12: huH4F3-8 (antibody, human IgG1, kappa, V domains shown)
VH: QVQLVQSGAEVKKPGASVKVSCKASGYTFTSYYIHWVRQAPGQRLEWMGWIYPGNVNTKYSQKFQGRVTLTRDKSASTAYMELSSLRSEDTAVYFCARGVYYFDFWGQGTLVTVSS
VL: AIQMTQSPSSLSASVGDRVTITCRASQSVSNDVGWFQQKPGKAPKLLIYYALNRYTGVPSRFSGSGSGTDFTFTISSLQPEDFATYYCQQDYSSPYTFGQGTKLEIKR
notes: as for B4
In the case of B12, the binding result in assay [1] and in assay [2] was “binds” in each case.

B13: huH4F3-10 (antibody, human IgG1, kappa, V domains shown)
VH: QVQLVQSGAEVKKPGASVKVSCKASGYTFTSYYIHWVRQAPGQRLEWMGWIYPGNVNTKYSQKFQGRVTLTRDKSASTAYMELSSLRSEDTAVYFCARGVYYFDFWGQGTLVTVSS
VL: DIVMTQSPDSLAVSLGERATINCKSSQSVSNDVAWYQQKPGQPPKLLIYYALNRESGVPDRFSGSGSGTDFTLTISSLQAEDVAVYYCQQDYSSPYTFGQGTKLEIKR
notes: as for B4
With B13, the binding result in assay [1] and in assay [2] was “binds” in each case.

B14: Antibody 6-B9B6 (murine chimeric anti-Nectin-4 antibody) (antibody, human IgG1, kappa, V domains shown)
VH: EVHLVESGGGLVQPGGSLKLSCAASGFTFSSYGMSWVRQTPDKRLELVATINNIGGSTFPPDSVKGRFTVSRDNAKNTLYLQMSSLKSEDTAMYYCARAYDYVPFAYWGQGTLVTVSA
VL: DIQMTQSSSYLSVSLGGRVTITCKASDHINNWLAWYQQKPGNAPRLLISGATSLETGVPSRFSGSGSGKDYALSIASLQTEDVATYYCQQYWSTPFTFGSGTKLEIKR
notes: as for B3
Regarding B14, the EC50 is 0.719 nM in assay [1] and 0.249 nM in assay [2]. Besides, the binding result in assay [3] and in assay [4] was “no binding” throughout.
